The nature of the series: label from the status in PepcDB records.

For “MTLTALNAISPIDGRYVNKTRALSPYFSEFALTYYRLMVEIKWFESLAANDTIPEVPALDNKARKFLSDLISNFNESEAEKIKEFEKQTNHDVKAVEYYLQDKFQENEQLKSCVAFIHFACTSEDINNLAYALMIKQAIAQVIQPTIAEIMGSITLLGKQHADVAMLSRTHGQPATPTTMGKELVNFVARLKRPQQQLAEVLIPAKFNGAVGNYNAHVAAYPEVDWRKHCANFVTSLGLSFNAYTTQIEPHDGIAEVSQIMVRINNILLDYTQDIWSYISLGYFKQKTIAEEVGSSTMPHKVNPIDFENAEGNLGLSNALFIHFANKLTQSRMQRDLSDSTVLRNLGVAFSYSLIAYHSVAKGNDKLQINKSALQKDLSENWEVLAEAIQTVMRRYNEPNAYEQLKELTRGQMIDAENLKKFIKTLSIPEEAKAELMKLTPETYTGLATQLVKAFS”, the protein production entry is given as “not failed”.
To “MTLTQQKVKFFSKAYHDVKRLYLSAFPPRERFPYFCLLLNSLRSLVTCYAYYDKERFVGFAYIIESKEQVFILFLAVNGSVRSKGYGSMILAQIREYAGRKPLILTIEPVEKDSPNSEQRRQRLSFYERNGYQLTSHYYYEGQERYQILTTEQSIDLERFQKLVKRAVLGLVLITV” belongs “failed”.
The entry for “MTLWSVASVLTLAFIFWLNAVMTASPYIVYLSGLKKQSERKNRLVALLLLLASLLYFFLKVGSFAAEGFAGMIDTTYMQFIWTGPVGLFIQLQIAVAIAWIVYSVVKLKRIKWVLYVVAIGLMGWSFLSIGHGSDAVWWGKLALLTHLLVAWVWFGSLNSLRKLATSVPLAKAKAIMERFGVHMSAAVPILLIAGLVMYRSATGRWMPELPLTSYDTVLLAKLVFVALILLVAALHKLKFVPQLNDNAAAKRLKNSITAEMVLAVTIFILASALSSAFSPG” is “failed”; for “MTLYKQLVAGMIAVFILLLISVFTIEFNTTRNSLEQQQRSEVNNTINTVGLALAPYLEKKDTIAVESVINALFDGSSYSIVRLIFLDDGTEILRSYPIQPNNVPAWFTQLNLFEPIHDRRVVTSGWMQLAEVEIVSHPGAAYAQLWKALIRLSIAFLAILVIGMFAVAFILKRSLRPLQLIVNKMEQVANNQFGEPLPRPNTRDLIYVVDGINKMSEQVEKAFKAQAKEAQQLRERAYLDPVSHLGNRAYYMSQLSGWLSESGIGGVAILQAEFIKELYEEKGYEAGDGMVRELADRLKNSITIKDISIARISTYEFGIIMPNMDETELKIVAESIITCVDDINPDPTGMAKANLSLGVVSNKRQSSTTTLLSLLDNALLKRNPILS” it is “failed”; for “MTMSPSQDQTENTDMLTEIAILYYQEGATQEEISKKFGLSRAKVGRMLRKAREEGIVEITVKFHPVYSVQLEQKLVEKFNLKRALISLDQPNTNEQRKQVAALVSSYLNNNLQEGMAVAVGQGQNVAAVADHAGIVTQRNARFVSAIGGTHRSGDIINADHICRRLAKKYGGSSETLYAPAYVNDPSLRSAFMEHATIKETLSQARKAEFALVGIGDMDENSHMVKLGFFTPKEFVEARLNDGIVGDIGGFDFFKLDGTDADTLMRGRVIGLEMEDLRQIPNVVAMASESRKALSIMGALRTGVIDVLATSVSCAMALLNLAENEE” it is “not failed”.
To “MTNERVMQLIREAYEKNLTTLDLSENQLTQLPSEITELKNLTTLNLSGNQLTQLPSEIGELKSLTSFDLSVNQLTQLPPEIGELKNLTILNVYRNQLIQLLPEITELKNLTTLDLSLNKLTQLPPLEHHHHHH” belongs “failed”; to “MTNLGDLEIFARVVSTGSMSAAGRALGFSAAVISKRIKRLEDRLGARLLQRTTRQISLTEAGQGFYDRVLGILAGLEEAEAYASGRSSQVQGTLRISAPTSFGRMHIAPHLTGFMKDHPDLKLHIVLTDDFTDIVAEGFDLAIRIGELSDSSLVARKLAPVRRLLCAAPSYVARHGAPTEIGELAKHICLPAHNNDNWKLEGPDGSLSYRPEGPLVTNSSEIIREAVIAGAGIALRSTWDIGRELREGRLVQVLPQWEGSHKLTLSAVYPSRQFLPAKVRQFIDYLAALYGPVPYWEQ”, “failed”; to “MTNLISGSSYPTANLYFMQVWKIECWLRAHEFSVDETICQMVEIMTLKFEKYWEEYSDILAIAAVFDPRLKLKCLEYCFSTLDRLTSKSRLAHVRSKIYKLFKAYKKRPSSITSSSQVETLEEDIPAGYSGFYAFVSQKVGSSGKSELDIYLGEPTLDMAAFRHFNVLAYWKDNSCRFKELSSMACDVLSIPITTVASESSFSIGSGVLSKYRSSLLPENIQALICTRNWLRGFPKEGEEEEVEEEKEEEKEEEKEEA”, “failed”.
For “MTNNPLGRIIPQQPPIEPQSDAHVLKSRLEWGEPAFTILDVRDRSTYNDGHIMGAMAMPIEDLVDRASSSLEKSRDIYVYGAGDEQTSQAVNLLRSAGFEHVSELKGGLAAWKAIGGPTEGIIESRTPAGADDYNVVSRMQNHLENQKKEV”, the protein production result is on record as “failed”.
To “MTNTPRQGATLAVLIDADNAAPAIVEGLLAEVAKYGVAAVKRIYGDWTRPNLSGWKDRLLAHSIQPIQQFRYTVGKNATDSAMIIDAMDLLYTGRFDGFCIVSSDSDFTRLASRIREQGLTVYGFGERKTPKPFVTACDKFIYSDVLRADADSDSDSETGSAPARKRTTQELRQDSRLVRLLQSASQAVSDEDGWSTLGGIGNYIAKQAPEFDSRNYGYGKLSELVTATNLFEVETRNGGNNKTLWVRLKKRNKGEGGGQPQPAQPQQQQQPQQQGQSSQPSQSQQPSQQAQPQQQRPAPAPARPVQPAPEPVAVIPATEPARVTEEEDDDAAGSASTLIQEAVEVSTERPKAGGKRGKRPDVTLSDTPWPIDQSVFSAPGATVLSAQVDVPEETKAAAPAEEAKKPAKKKPAAKKAAPRKRAPAKKAAAAE” belongs “failed”.
To “MTNVRVIKPALAALVAAAACVGGLAFSSAQPAQADTYSDLINAQNQHAASVQREAELKQQLAGASQDLANKVLELDDLTNNKIVAAQAKVTQANEDAATAQDEADAASGRLSAAQKDKETLEEQIKQTGKDYDDAHAAVAQLARDEMHGSNASDVMSVVTGATSTQDFVNSMQSRDALSRNEANAASSAATSLSTSKNRGERLAAIEKQIAVLKTQSDEKAASAQTAAETAQSERDALDKLRQEGETRRNELSSMVDSLDSQSAKQAAQTVLIASQVDSYNRQFQKEQQDAANRVDTGNQGGTPSTPVTPAPAPAPAPAPAPAPAPAPAPSVGGQGTSNGDYGNAYAAGQCTYWAYERRRQMGIGTPSYLGNGGFWWRSAPAYGLRVDHTPQVGAALSFLPGQDGADGTYGHVAVVEAVYGDGTFQISEMNWGGPWNMHYRTLTNLGQYWFVH” belongs “failed”; to “MTPAAHPPRAAIADIAGHLPEQVLTNDVLAQLYPDWPAEKILAKTGIRERRIAAPRETAADLAYEAARKLFAQGAVGADQVDFVILCTQAPDYVLPTSACMLQHRLGIPTHAGALDVNLGCSGYVYGLSLAKGLVETGAARCVLLLTADTYSKYLHPLDKSVRTLFGDGASATAVIAEHGELERIGPFVFGTDGRGAPNLIVKAGLFREPKSADSAREHEDASGNVRTDEHLYMNGAEVMAFSLAEVPRAADRLLALAGEPRENIDCFVLHQANRFMLDALRKKMKIPEHKFPVLMEHCGNTVSSTLPLALETMRANGTLARGMRLMLLGFGVGYSWAGCLVNF”, “not failed”.
The entry for “MTPDFQIVTQRLQLRLITADEAEELVQCIRQSQTLHQWVDWCHALFSQQEAEQFIQATRLNWVKAEAYGFGVFERQTQTLVGMVAINEFYHTFNMASLGYWIGDRYQRQGYGKEALTALILFCFERLELTRLEIVCDPENVPSQALALRCGANREQLAPNRFLYAGEPKAGIVFSLIP” is “not failed”.
In the case of “MTPDSSVYKALLESTKAIPWKINWQTMAFEYIGPQIEALLGWPQGSWKSVEDWATRMHPEDQEWVVNFCVKQSECGVDHEADYRALHRDGHYVWIRDVVHVVRDDSGEVEALIGFMFDISLEHHHHHH”, the protein production entry is listed as “not failed”.
The entry for “MTPEAAYQNLLEFQRETAYLASLGALAAWDQRTMIPKKGHEHRARQMAALARLLHQRMTDPRIGEWLEKVEGSPLVQDPLSDAAVNVREWRQAYERARAIPERLAVELAQAESEAESFWEEARPRDDWRGFLPYLKRVYALTKEKAEVLFALPPAPGDPPYGELYDALLDGYEPGMRARELLPLFAELKEGLKGLLDRILGSGKRPDTSILHRPYPVEAQRRFALELLSACGYDLEAGRLDPTAHPFEIAIGPGDVRITTRYYEDFFNAGIFGTLHEMGHALYEQGLPKEHWGTPRGDAVSLGVHESQSRTWENLVGRSLGFWERFFPRAREVFASLGDVSLEDFHFAVNAVEPSLIRVEADEVTYNLHILVRLELELALFRGELSPEDLPEAWAEKYRDHLGVAPKDYKDGVMQDVHWAGGLFGYFPTYTLGNLYAAQFFQKAEAELGPLEPRFARGEFQPFLDWTRARIHAEGSRFRPRVLVERVTGEAPSARPFLAYLEKKYAALYG” is “not failed”; for “MTPEIAIGLVTALGLGALVGLERQWRQRSSGMATHAMVALGAASFSILPLLLDNEVSVTRMAAQVVSGIGFLGAGVIMRDGLSVRGLSTAASIWSTGAIGVLAGSGFILAACMTTALIVIANLFLPALGRVVDRHTSGEAEQERFYQISVSCEARNEALVRMQLLQRMGDNRLNLQSLESHALKGSGNVEVNAVVFTLHKEDSLVEQMVGELCLAPQVTAASWVMNPAAE” it is “failed”; for “MTPGGLFLPYHSLPQPDFLASCPTRHLKLCQCPGILAENPHQFSPTFPPGKGSCQHGALPGQVSLKEAAHTEMSLSGQDLFPSPAHPPLQPFWLPFSLCLSTPFLVADNELRLPKGQICPLHVFVLANRVVLKLCANSVWEHSKGIT” it is “failed”.
To “MTPGTIFLSSQVLMPSEDDTKRFHLAEGQELFYLERVRTADGQPIVYCIDKIPMNILPNSFSHQQESMFDLLEKNSGSVISYAVTDIEPIGYHDTISPVLECDPETALLLLKQTHYDQHDKPVLYSLNYFRA” belongs “not failed”; to “MTPIHVVGIGLDGLPGLAAAVQQIIDSATLLVGSDRHLQLIPQGDTPRLSLGNFNASLKAIQTHLDTTANPQVVILTSGDPLFYGLGRWLLEVFAPDQLTFHPHLSAVQLAFSRLKLPWQDAVIYSAHGRDLAGLVPLLQRGVEKIAIYTDGEANIAAISRLYQALHIPVTYRAWVCQALGSAEEAILPWDLAQPVTALPPVHPLNLVVLLRQPQRLPPREQPIVGLGDDQFFTFADRPSLMTKREVRVLVLAELALTSTVEIVWDIGAGTGSVAVEIARLAPQATIYAIEKTAIGFQLIERNRRAFGLANLIPLQGTAPQCLRDLPPPDRVFIGGSGAQLLANLDYCWSHLNAGGRLVLAIATLEHQGQVLHWCQTHQINPQVLQVQLSRSVP”, “failed”; to “MTPLPPRPGPGARLARPAAAVLLVAAIGALAAFAPGPATRALESLRQSAPAAAAALAAAYVASGPLMIPAPLLHLAAGFALGPVSGSLVAIPASTLGACAAFAAGRWLVRERAARLAARSPALAGVDAALAASGFRVVLLLRLAPLAPFTVLNYLLGATPVPLRAFALASLLGSVPGLILSVYVGSLAADAAALRATVDAGRGGPGALILPAIGTGAILLAISWVLRRALAASAGARPPPA”, “failed”.
To “MTPNRRPRPSGAEVRRKIRGPDGLALLPSGRVSWLPDDFVHPVLVPLPGGDHHLRPIRETDTPLDYPAVMGSRERLWTVYGPAWGWPAATMTYEADRADLLRHEKEIAAHQSFNYALFDTAETALLGCVYIDPPERAGADGDISWWVVDELVDSTVERALDALVPQWIAADWPFERPRFIGREISWSDYLALPGIPTVP” belongs “failed”.

These data come from a protein production outcome set (Wang et al. 2014).
